For assay [1], the system named is 12 week human fetal distal epithelial lung buds. In words: Isolated human fetal lung bud culture in Matrigel: growth/expansion. As to conditions: FGF10 500 ng/mL. The format is cell-based. The text has this:
All research utilizing human fetal tissue was approved by the University of Michigan institutional review board. Normal human fetal lungs were obtained from the University of Washington Laboratory of Developmental Biology, and epithelial lung buds were dissected as described below. All experiments were repeated using tissues from 3 individual lungs; 84 day post fertilization of unknown gender, 87 day post fertilization male, and 87 day post fertilization of unknown gender. All tissues were shipped in Belzer's solution at 4 degrees Celsius and were processed and in culture within 24 hours of isolation.
(§1) Isolated mouse buds were cultured in 4-6 μl droplets of matrigel, covered with media, and kept at 37 degrees Celsius with 5% Carbon Dioxide. Isolated human fetal lung buds were cultured in 25-50 μl droplets of matrigel, covered with media, and kept at 37 degrees Celsius with 5% Carbon Dioxide.
Distal regions of 12 week fetal lungs were cut into ˜2 mm sections and incubated with dispase, 100% FBS and then 10% FBS as described above, and moved to a sterile petri dish. Mesenchyme was removed by repeated pipetting of distal lung pieces after dispase treatment. Buds were washed with DMEM until mesenchymal cells were no longer visible in the media. Buds were then moved to a 1.5 mL eppendorf tube containing 200 uL of Matrigel, mixed using a p200 pipette, and plated in ˜20 uL droplets in a 24 well tissue culture plate. Plates were placed at 37 degrees Celsius with 5% CO2 for 20 minutes while droplets solidified. 500 uL of media was added to each well containing a droplet. Media was changed every 2-3 days.
All mouse bud, human fetal bud, and hPSC-derived human lung organoids were grown in low-serum basal media (basal media) with added growth factors. […]

The test system of assay [2] is E13.5 mouse distal epithelial lung buds. In words: Isolated E13.5 mouse distal lung bud culture in Matrigel droplet: growth/expansion. The format is cell-based. As to conditions: FGF10 500 ng/mL (50-fold excess), up to 5 days. As to the method:
as §1
Mouse buds were dissected from E13.5 embryos. For experiments using Sox9CreER; Rosa^Tomato/Tomato mice, 50 ug/g of tamoxifen was dissolved in corn oil and given by oral gavage on E12.5, 24 hours prior to dissection. Briefly, in sterile environment, whole lungs were placed in 100% dispase (Corning Cat#354235) on ice for 30 minutes. Lungs were then transferred using a 25 uL wiretrol tool (Drummond Scientific Cat#S5-000-2050) to 100% FBS (Corning Cat#35-010-CV) on ice for 15 minutes, and then transferred to a solution of Dulbecco's Modified Eagle Medium: Nutrient Mixture F12 (DMEM/F12, ThermoFisher SKU#12634-010) with 10% FBS and 1× Pennicillin-Streptomycin (ThermoFisher Cat#15140122) on ice. To dissect buds, a single lung or lung lobe was transferred by wiretrol within a droplet of media to a 100 mm sterile petri dish. Under a dissecting microscope, the mesenchyme was carefully removed and epithelial bud tips were torn away from the bronchial tree using tungsten needles (Point Technologies, Inc.). Care was taken to remove the trachea and any connective tissue from dissected lungs. Isolated bud tips were picked up using a p20 pipette and added to an eppendorf tube with cold Matrigel (Corning Ref#354248) on ice. The buds were picked up in a p20 pipette with 4-6 uL of Matrigel and plated on a 24-well tissue culture well (ThermoFisher Cat#142475). The plate was moved to a tissue culture incubator and incubated for 5 minutes at 37 degrees Celsius and 5% CO2 to allow the Matrigel droplet to solidify. 500 uL of media was then added to the dish in a laminar flow hood. Media was changed every 2-3 days.
All mouse bud, human fetal bud, and hPSC-derived human lung organoids were grown in low-serum basal media (basal media) with added growth factors. Basal media consisted of Dulbecco's Modified Eagle Medium: Nutrient Mixture F12 (DMEM/F12, ThermoFisher SKU#12634-010) supplemented with 1× N2 supplement (ThermoFisher Catalog#17502048) and […] B27 supplement (ThermoFisher Catalog#17504044), along with 2 mM Glutamax (ThermoFisher Catalog#35050061), 1× Pennicillin-Streptomycin (ThermoFisher Cat#15140122) and 0.05% Bovine Serum Albumin (BSA; Sigma product# A9647). BSA was weighed and dissolved in DMEM F/12 media before being passed through a SteriFlip 0.22 uM filter (Millipore Item# EW-29969-24) and being added to basal media. Media was stored at 4 degrees Celsius for up to 1 month. On the day of use, basal media was aliquoted and 50 ug/mL Ascorbic acid and 0.4 uM Monothioglycerol was added. […]

“Also recorded” adds a separate entry of the source.

Consider `C[C@@H](N)[C@H]1CC[C@H](C(=O)Nc2ccncc2)CC1` [Y27632, reference compound], for which the “Tissue expansion / cyst formation of bud tips” value in assay [1] (Y27632 10 uM) is “in combination with FGF10, but not alone, promoted growth of buds into larger cyst-like structures; also recorded: did not lead to tissue expansion”.

B1: Recombinant Human Fibroblast Growth Factor 10 (protein, UniProt O15520 38-208, looked up)
Fibroblast growth factor 10: QALGQDMVSPEATNSSSSSFSSPSSAGRHVRSYNHLQGDVRWRKLFSFTKYFLKIEKNGKVSGTKKENCPYSILEITSVEIGVVAVKAINSNYYLAMNKKGKLYGSKEFNNDCKLKERIEENGYNTYASFNWQHNGRQMYVALNGKGAPRRGQKTRRKNTSAHFLPMVVHS
Take B1: the Bud growth result in assay [2] is reported as “modest growth of buds”. Further, the “Growth of human fetal lung buds” value in assay [1] (compared to basal media) is reported as “only modest growth; also recorded: expansion of the tissue was not robust”.

Source of the values: patent US11857697B2, “Compositions and methods for obtaining 3-dimensional lung-like epithelium and related uses thereof” (THE REGENTS OF THE UNIVERSITY OF MICHIGAN, priority 2017, dated 2024).
